Experimental findings from doi:10.1101/2022.09.27.509796 (bioRxiv, 2022) are described below.

For this assay, the target named is T1, ΔN100 y-mtRNAP (yeast mitochondrial RNA polymerase, RPO41) (Saccharomyces cerevisiae, UniProt P13433 101-1351).
T1 sequence (looked up): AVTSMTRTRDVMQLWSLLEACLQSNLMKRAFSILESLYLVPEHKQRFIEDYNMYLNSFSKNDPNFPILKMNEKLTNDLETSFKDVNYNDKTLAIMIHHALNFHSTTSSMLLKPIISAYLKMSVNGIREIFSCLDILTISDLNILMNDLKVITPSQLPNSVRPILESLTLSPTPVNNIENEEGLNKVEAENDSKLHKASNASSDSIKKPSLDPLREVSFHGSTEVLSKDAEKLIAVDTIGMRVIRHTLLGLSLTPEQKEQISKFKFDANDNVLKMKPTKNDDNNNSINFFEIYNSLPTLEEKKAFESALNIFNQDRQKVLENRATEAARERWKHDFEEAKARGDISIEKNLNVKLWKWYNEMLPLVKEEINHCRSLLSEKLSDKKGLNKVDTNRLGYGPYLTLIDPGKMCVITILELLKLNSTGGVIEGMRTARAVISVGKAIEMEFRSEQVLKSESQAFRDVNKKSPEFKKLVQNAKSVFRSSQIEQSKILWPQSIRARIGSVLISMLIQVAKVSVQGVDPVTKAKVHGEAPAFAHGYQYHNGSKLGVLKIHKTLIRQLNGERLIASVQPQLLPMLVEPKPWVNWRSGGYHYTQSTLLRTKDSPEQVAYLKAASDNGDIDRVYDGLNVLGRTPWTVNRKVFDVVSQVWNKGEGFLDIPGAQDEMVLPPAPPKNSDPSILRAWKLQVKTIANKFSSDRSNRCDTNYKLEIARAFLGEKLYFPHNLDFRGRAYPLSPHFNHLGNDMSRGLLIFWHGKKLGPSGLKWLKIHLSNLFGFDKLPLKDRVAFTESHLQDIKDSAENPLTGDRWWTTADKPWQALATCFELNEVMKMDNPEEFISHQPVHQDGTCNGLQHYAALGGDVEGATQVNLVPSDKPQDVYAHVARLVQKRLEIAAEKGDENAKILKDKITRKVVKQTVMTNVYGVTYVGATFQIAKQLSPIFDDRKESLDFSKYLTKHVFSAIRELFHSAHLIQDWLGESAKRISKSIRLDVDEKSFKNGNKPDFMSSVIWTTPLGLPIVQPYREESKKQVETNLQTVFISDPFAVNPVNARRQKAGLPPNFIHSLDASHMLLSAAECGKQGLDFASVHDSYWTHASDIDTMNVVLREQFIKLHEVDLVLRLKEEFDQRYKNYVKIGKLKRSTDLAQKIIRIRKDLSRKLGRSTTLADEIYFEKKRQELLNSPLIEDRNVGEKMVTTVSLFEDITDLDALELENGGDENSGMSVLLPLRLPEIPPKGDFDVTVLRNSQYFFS
Put plainly: cryo-EM structure.

B1: MTF1 (yeast mitochondrial transcription factor) (natural protein, Saccharomyces cerevisiae)
chain: SVPIPGIKDISKLKFFYGFKYLWNPTVYNKIFDKLDLTKTYKHPEELKVLDLYPGVGIQSAIFYNKYCPRQYSLLEKRSSLYKFLNAKFEGSPLQILKRDPYDWSTYSNLIDEERIFVPEVQSSDHINDKFLTVANVTGEGSEGLIMQWLSCIGNKNWLYRFGKVKMLLWMPSTTARKLLARPGMHSRSKCSVVREAFTDTKLIAISDANELKGFDSQCIEEWDPILFSAAEIWPTKGKPIALVEMDPIDFDFDVDNWDYVTRHLMILKRTPLNTVMDSLGHGGQQYFNSRITDKDLLKKCPIDLTNDEFIYLTKLFMEWPFKPDILMDFVDMYQTEHSG
With B1, the binding result was “binds”.
